Data: the RNAGym collection of RNA variant scans (doi:10.1073/pnas.2313332121)
Fewer inactive variants are shown than the library holds.

B1: TPR 5TU (parent)
chain: GGAUCUUCUCGAUCUAACAAAAAAGACAAAUCUGCCACAAAGCUUGAGAGCAUCUUCGGAUGCAGAGGCGGCAGCCUUCGGUGGCGCGAUAGCGCCAACGUUCUCAACUAUGACACGCAAAACGCGUGCUCCGUUGAAUGGAGUUUAUCAUG

Variants of: B1
Test: polymerase ribozyme fitness, log enrichment relative to wild type (log ratio); higher = more active; in vitro selection for triplet polymerase activity
Outline: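 Mutant libraries for each subunit of a heterodimeric triplet polymerase ribozyme were made by PCR and then transcribed. Each library underwent one round of in vitro selection in triplicate: annealing with a biotinylated primer, the partner subunit and triplets, frozen incubation at −7 °C, gel excision of extended constructs, streptavidin-bead capture and RT-PCR. Input and output libraries were Illumina-sequenced, and only genotypes with ≥10 input reads and ≥1 read per output were kept. Fitness is the logarithm, base 2, of genotype enrichment over wild-type enrichment, computed from inverse-variance-weighted replicate averages.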

Variant | polymerase ribozyme fitness (log ratio)
GGAUCUUCUCGAUCUAACAAAAAAGACAAAUCUGCCACAAAGCUUGAGAGCAUCUUCGGAUGCAGAGGCGGCAGCCUUCGGUGGCGCGAUAGAGCCUACGUUCUCAACUAUGACACGCAAAACGCGUGCUCCGUUGAAUGGAGUUUAUCAUG [C93A A97U] | -3.38
GGAUCUUCUCGAUCUAACAAAAAAGACAAAUCUGCCACAAAGCUUGAGAGCAUCUUCGGAUGCAGAGGCGGCAGCCUUCGGUGGCGCGAUAGAGCCGACGUUCUCAACUAUGACACGCAAAACGCGUGCUCCGUUGAAUGGAGUUUAUCAUG [C93A A97G] | -3.37
GGAUCUUCUCGAUCUAACAAAAAAGACAAAUCUGCCACAAAGCUUGAGAGCAUCUUCGGAUGCAGAGGCGGCAGCCUUCGGUGGCGCGAUAGAGCCAACGUUCUCCACUAUGACACGCAAAACGCGUGCUCCGUUGAAUGGAGUUUAUCAUG [C93A A106C] | -2.63
GGAUCUUCUCGAUCUAACAAAAAAGACAAAUCUGCCACAAAGCUUGAGAGCAUCUUCGGAUGCAGAGGCGGCAGCCUUCGGUGGCGCGAUAGAGCCAACGUUCUCAACUAUGACACGCAAAACGCGUGCUCGGUUGACUUCAGUUUAUCAUG [C93A C132G A138C G140U G141C] | ≤ -4.2
GGAUCUUCUCGAUCUAACAAAAAAGACAAAUCUGCCACAAAGCUUGAGAGCAUCUUCGGAUGCAGAGGCGGCAGCCUUCGGUGGCGCGAUAGGGCCAACGUUCUCAACUAUGACACGCAAAUCGCGUGCUCCGUUGAAUGGAGUUUAUCAUG [C93G A122U] | -2.98
GGAUCUUCUCGAUCUAACAAAAAAGACAAAUCUGCCACAAAGCUUGAGAGCAUCUUCGGAUGCAGAGGCGGCAGCCUUCGGUGGCGCGAUAGAGCCAACGUUCUCAACUAUGACCCGCAAAACGCGUGCUCCGUUGAAUGGAGUUUAUCAUG [C93A A115C] | -3.22
GGAUCUUCUCGAUCUAACAAAAAAGACAAAUCUGCCACAAAGCUUGAGAGCAUCUUCGGAUGCAGAGGCGGCAGCCUUCGGUGGCGCGAUAGAGCCAACGUUCUCAACUAUGACAAGCAAAACGCAUGCUCCGUUGAAUGCAGUUUAUCAUG [C93A C116A G126A G141C] | ≤ -4.2
GGAUCUUCUCGAUCUAACAAAAAAGACAAAUCUGCCACAAAGCUUGAGAGCAUCUUCGGAUGCAGAGGCGGCAGCCUUCGGUGGCGCGAUAGAGACAACGUUCACAACUAUGACACGCAAAACGCGUGCUCCGUUGAAUGCAGUUUAUCAUG [C93A C95A U104A G141C] | ≤ -4.2
GGAUCUUCUCGAUCUAACAAAAAAGACAAAUCUGCCACAAAGCUUGAGAGCAUCUUCGGAUGCAGAGGCGGCAGCCUUCGGUGGCGCGAUAGAGCCAACGUACUCAACUAUGACACGCAAAACGCGUGCUCCGUUGCAUGGAGUUUAUCAUG [C93A U102A A137C] | ≤ -4.2
GGAUCUUCUCGAUCUAACAAAAAAGACAAAUCUGCCACAAAGCUUGAGAGCAUCUUCGGAUGCAGAGGCGGCAGCCUUCGGUGGCGCGAUAUCGCCAACGUUCUUAUCUCUGACACGCAAAACGCGUGCUCCGUUGACUGGAGUUUAUCAUG [G92U C105U A107U A110C A138C] | ≤ -4.2
GGAUCUUCUCGAUCUAACAAAAAAGACAAAUCUGCCACAAAGCUUGAGAGCAUCUUCGGAUGCAGAGGCGGCAGCCUUCGGUGGCGCGAUAUCGCCAACGUUUUCAACUAUGACACGCAAAACGCGUGCUCCGUUUAAUGGAGUUUAUCAUG [G92U C103U G136U] | -3.43
GGAUCUUCUCGAUCUAACAAAAAAGACAAAUCUGCCACAAAGCUUGAGAGCAUCUUCGGAUGCAGAGGCGGCAGCCUUCGGUGGCGCGAUAGAGCCAACGUUCUCAACUAUGACACGCAAAACGCGCGCUCCGUUGAAUGGAGUUUAUCAUG [C93A U127C] | -3.6
GGAUCUUCUCGAUCUAACAAAAAAGACAAAUCUGCCACAAAGCUUGAGAGCAUCUUCGGAUGCAGAGGCGGCAGCCUUCGGUGGCGCGAUAGAGCCAACGUUCUCAACUAUGACACGCAAAACGCGUGCUCCGUUGAAUGGAAUUUAUCAUG [C93A G143A] | -2.78
GGAUCUUCUCGAUCUAACAAAAAAGACAAAUCUGCCACAAAGCUUGAGAGCAUCUUCGGAUGCAGAGGCGGCAGCCUUCGGUGGCGCGAUAUCGCCAACGUUCUCAACUAUGACCCGCAAAACGCGUGCUCCGUUGAAUGGAGUUUAUCAUG [G92U A115C] | -2.23
GGAUCUUCUCGAUCUAACAAAAAAGACAAAUCUGCCACAAAGCUUGAGAGCAUCUUCGGAUGCAGAGGCGGCAGCCUUCGGUGGCGCGAUAGAGCCAACGUUCUCAACUAUGACACGCAAAACGAGUGCUCCGUUGAAUGGAGUUUAUCAUG [C93A C125A] | -1.68
GGAUCUUCUCGAUCUAACAAAAAAGACAAAUCUGCCACAAAGCUUGAGAGCAUCUUCGGAUGCAGAGGCGGCAGCCUUCGGUGGCGCGAUAUCGCCAACGUUCUCAACUAUGACACGCAAAACGCGUGCUCCGUUGAAUGGAGUUUCUCAUG [G92U A147C] | -0.377
GGAUCUUCUCGAUCUAACAAAAAAGACAAAUCUGCCACAAAGCUUGAGAGCAUCUUCGGAUGCAGAGGCGGCAGCCUUCGGUGGCGCGAUAUCGCCAACGUUCUCAACUAUGACACGCAAAACGCGUGCUCCCUUGAAUGGAGUUUAUCAUG [G92U G133C] | -2.1
GGAUCUUCUCGAUCUAACAAAAAAGACAAAUCUGCCACAAAGCUUGAGAGCAUCUUCGGAUGCAGAGGCGGCAGCCUUCGGUGGCGCGAUAGGGCCAACGUUCUCAUCUAUGACACGCAAAACGCGUGCUCCGUUGAAUGGAGUUUAUCAUG [C93G A107U] | -4.14
GGAUCUUCUCGAUCUAACAAAAAAGACAAAUCUGCCACAAAGCUUGAGAGCAUCUUCGGAUGCAGAGGCGGCAGCCUUCGGUGGCGCGAUAGAGCCAACGUUCUCAACUAUGACACGCAAAACGCGUGCUCCGUUGAAUGAAGUUUAUCAUG [C93A G141A] | -1.74
